From the supplement of paper PMC9942255
“And” between values parts separate entries of the source, which are not always exact repeats. Identical values can stand only once.

tested on: Bacillus subtilis DB104 (SP-AmyQ fusion secretion); test: AmyQ secretion efficiency, weighted average sort bin (1 = best secretion, 10 = worst) (bin number (weighted average, 1-10)); higher = lower secretion efficiency
How it was run: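 In this assay, the secretion score is defined as the average bin number weighted by read frequency, normalised to beads per bin, with low-abundance sequences not counted. B. subtilis DB104 cells expressing mature AmyQ behind designed signal peptides (amyE-integrated) were enclosed with fluorescein-starch in ~65 nL alginate beads at about 0.3 cells per bead. Beads grew about 13 h at room temperature, were stained with nile red, and occupied beads went into 10 equally populated green/red fluorescence ratio bins by large-particle flow cytometry, whose amplicons were Illumina-sequenced.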

Sequence | AmyQ secretion efficiency
MKKSQYSRQSKCTFVLFSVHPIAAAAADS | 7.33
MKLKSKYYKGCRSTSTVFVATTIANAPTH | 7.35
MKKKQVMLALTAAAGLGLTALHSAPAAKPAPL | 4.99
MRKTKKRKLTGLMMFGTITAASASPD | 4.65
MTKLKMLSMLTVMIASLFIFSSQALSVQY | 2.56
MRSKKLWISLLFALTLIFTMAFSNMSPQAAGK | 4.28
MVKKWLIQFAVMLSVLSTFTYSASIVGV | 8.01
MKKQIITATTAVVLGSTLFAGANSAQSI | 3.08
MITAAAVLLSLGLVFGFSYGAGHVAEAKTK | 3.09
MKLSVKIAGVLTVAAAAMKATAKGN | 7.76
MKVPKTMLLSTAAGLLLSLTATSVSAHYK | 5.14
MFKFKKNTRGGLSAALMSISLFSATASAAST | 3.49
MKKKSQQQGGVSAVVGSSMAAAPAEAKTI | 7.9
MRSKKLWISLLFALTLIKKKAFSNMSAQAAGK | 8.69
MKSKGSIMKCQILFSFTITTFINTETISAFSN | 6.89
MRSYIKVLTMCFLGLILFVPTPLADNS | 5.93
MKVLLSALLLLLFAEDEEEEASGKKL | 5.86
MHLIRAAGAVCLARFNEDQHQAEGENT | 8.19
MKRFSTAYLLLGILCSAAVFLIGAPSSALGAEV | 3.5
MRKTIFAFLTGLMMFIFTSSGTITAASASPD | 1.89
MKRITINIITMFIAAAVIFLVVFTSSGTAEAAEK | 2.77
MMKKGLLAGALTATVLFGTCAVDVPGIISPKTIEAASQ | 4.02
MKKAFLVFLSVVLVTTVFLVKQQESVAQKKQL | 4.43
MRPVFPTSQKKYLFLSCFFGARQTEASASKR | 7.29

Sequence | AmyQ secretion efficiency
MIAYFGKCLLLVTIMFLGVLFGMQQVNHG | 6.78
MIAYFGKCGYKYGRTRLGVLFGMQQANHG | 8.61
MRFTKVVGFLSVLGLAAVFPLTAQTEKA | 5.69
MHLIRAAGAVCLAVVLIAGCRFNEDQHQVEGENT | 4.66
MKTPKGMLLSTAAGLLLSLTATSVSAHYV | 5.33
MFKKLLLATSALTFSLSLVLVLSIHAKAQEV | 3.44
MTLTSGFLLLSCLALSTVFVATTIANAPTH | 5.02
MRKKLKWLSFLLGFIILLFLFKYQFSNNKR | 5.8
MIAYFGKCRKTRTIMFLGVLFGMQQANHG | 3.14
MRMLWRSLALCGLALTLADDDCAQAAEP | 2.72
MKKRLIAPMLLSAASLAFFAMSGSFQAAAY | 7.38
MRKRRTIFAFLTGLMMFGTITAASASPD | 4.74
MKKRLIAPMLLIAAILAFFAMSGSAQAAAY | 2.47
MRPVFPLILSAVLFLSCFFGARQTEASYSKR | 2.56
MKKIWIGMLAAAMVPKVSLADAA | 5.25
MNKLKRLSMLTVMIASVFIFSSHCLAAQY | 2.86
MKKVLMAFIICLSLILSVLAAPPSGAKGESV | 2.46
MRGKSAVLLSLIMLIAGFLISFHFQM | 7.78
MKKTIMSFVAVAALSTTAFVAFTTSTLSGAHASAKEI | 4.48
MRRVCFLAALIMAFTLPNSVYAQKP | 2.21
MKLAKRVSALTPSTTLAITAKGKEL | 7.3
MKKKQVMLALTAAAGLGLTALHSAPANKAAPL | 5.6
MGLGKKLSVAVAASFMSLSPGVQAAEG | 1.73
MTMLRKIIGWILLLCIIPLFAFTVIRSGKEV | 7.52

Sequence | AmyQ secretion efficiency
MGRIKTKITILLVLLLLLAGGYMYIN | 5.89 and 6.33 and 5.86
MIAYFGKCLLLVTIMFLGVLFGMHQANHG | 6.41
MRKKHKTISLLIIFLLASAVLAKPIEAHTV | 2.55
MRRRWRSLALCGLALTLAPCAQAAEP | 2.05
MRKKLKWLSTLLGFIILLFLFKYQFSNNDS | 5.35
MLKKIALTLCPAIVGSLLFFTAPKSAHVS | 5.03
MKKLVLCVSILAVILSGVALYQLS | 4.11
MKRKKKKASLVLFAVVFVFAVKGAPAKAETH | 2
MKKRLIAPMLLSAASLAFFAMSGSAQWAAY | 6.21
MAIIIAIIAAVIVIAALITFNVRNESPG | 7.39
MKLAKRVSALTPSTTLAITAKNKEL | 8.25
MKSKGSIMACLILFSFTITTFINTETISLFSN | 7.29
MKKLLAAGIIGLLTVSIASPWFAAEK | 7.98
MGLGKKLMVAVAAIFMMLMIFLPGVQAAEG | 1.54
MKRLCLWFTVFSLFLVLLPGKALYAVD | 4.11
MRPVFPLILSAVLFLSCFFGARQTENSASKR | 6.14
MKRFSTAYLLLGILCSAAVFLIGAPSRALNAEV | 5.97
MMLAKRVSALTPSTTLAITAKAKEL | 7.47
MKKQIITATTAVVLGSTLFAGACSAQSI | 2.49
MKKRLIAPMLLSAASLAFFAMSGSRQAAAY | 6.03
MKRFSTAYKQQRQQCSAAVFLIGAPSRALGAEV | 7.51
MGMTSNLSLGVASAALGLALVGGGTWAAFN | 8.22
MLKKKWMVGLLAGCLAAGGFSYNAFVTEN | 7.21
MRKKRMIMMVITCVMAASLTLGSLLPAGYASAKED | 3.07

Sequence | AmyQ secretion efficiency
MKRIRIPMTLALGAALTIAPLSFTGFGPAGASAEEN | 3.89
MKVLLSALLLLLFAFEPSTVVTAATAVASGKKL | 2.96
MKVCQKSIVRTNFLVSLIIGTFVISVPFMANAQSD | 2.34
MKKIWIGMLAAAVLLLRKPKVSLADAA | 7.91
MKKLVLCVSILAVILSGVALVQLS | 5.7
MSTLVLCVSILAVILSGVALTQLS | 6.38
MLKKTILAAFILVGSTLGAFSFSSDASAKHV | 2.16
MKKELLASLVLCLSLSPLVSTNEVFAATT | 2.73
MKWMCSICCAAVLLAGGARQAEAV | 2.15
MRYFSKAVFVIMISFLIATVNVNTAHAAID | 5.65
MRKKTKNRLISSVLSTVVISSLLFPQEAGASSK | 1.83
MKKGIIRFLLVSFVLFFALSTGITGVQSAPA | 4.46
MLKRTSFVSSLFISSAVLLSILKKKGQAHAQSA | 7
MKKRLIGFLVLVPALIMSGITLIEWNKK | 3.04
MMIKQNMSSNSSCVICLSLLVFGTTAAHAEET | 4.39
MKRKKRGSKRTSALSLGLLVSAPTASFAAES | 6.79
MKQTMIFLTSFMLLAMTGQTALAKDV | 3.23
MRSKKLLFTLWISLLFALTLIFTMAFSNMSAQAAGK | 2.87
MLKKKWMVGLLAGCLAAGGFSYNNFATEN | 6.75
MKKRLIAPMLLSAASLAFFAMSGSAQMAAY | 6.46
MFMKSGMEQAVSVLLLLSRLPVQASLTSE | 9.96
MKLWMRKTLVVLFTIVTFGLVSPPAAEMADKP | 2.41
MKKGYSTTSTGVLVTTVFLVKQQESVAQAKQL | 7.95
